T1: murine IFNγ receptor (murine, UniProt P15261)
T1 sequence: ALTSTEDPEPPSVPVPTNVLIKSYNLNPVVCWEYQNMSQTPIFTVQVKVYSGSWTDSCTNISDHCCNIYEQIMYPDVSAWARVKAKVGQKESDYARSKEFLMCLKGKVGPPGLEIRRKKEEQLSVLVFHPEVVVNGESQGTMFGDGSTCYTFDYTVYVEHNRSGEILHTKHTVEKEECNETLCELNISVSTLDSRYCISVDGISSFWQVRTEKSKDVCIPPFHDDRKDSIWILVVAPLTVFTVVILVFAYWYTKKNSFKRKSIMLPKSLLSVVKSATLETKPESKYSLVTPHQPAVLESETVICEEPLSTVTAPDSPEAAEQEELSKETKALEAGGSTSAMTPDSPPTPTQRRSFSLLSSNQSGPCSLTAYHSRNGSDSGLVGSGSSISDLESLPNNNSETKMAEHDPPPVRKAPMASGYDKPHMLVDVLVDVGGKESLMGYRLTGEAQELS


Target: T1, murine IFNγ receptor
Experiment: cell-based or functional assay

Row | Binder | Ia (MHC class II) expression on P388D1 cells by FACS, peptide at 100 µM, 24 hours [fold]
1 | AKFEVNNPQVQRQAFNELIRVVHQLLPESSLRKRKRSRC [muIFNγ (95-133)] | 10
2 | LTNYSVTDLNVQRKAIHELIQVMAELSPAAKTGKRKRSQM [huIFNγ (95-134)] | 10

From patent US5770191, “Active C-terminal peptides of interferon--gamma and their use” (University of Florida, dated 1998)
